Patent US20210032351A1 (XDCEXPLORER SHANGHAI, published 2021)

B1: Murine anti-75G7 (antibody, V domains shown)
VH: EVQLQQSGPELVKPGASVKIPCKASGYTFTDYNMDWVKQSHGKSLEWIGDINPNNGDTIYNQKFKGKATLTVDKSSSTAYMELRSLTSEDTAVYYCARGDYDGYYPVYYAMDYWGQGTSVTVSS
VL: ENVLTQSPAIMSASPGEKVTMTCRASSSVSSSYLHWYQQKSGASPKLWIFSTSNLAAGVPARFSGSGSGTSYSLTVSSVEAEDAATYYCQQYSGYPLTFGAGTKLELK
notes: murine hybridoma antibody; also called 75G7C6
B2: Chimeric antibody 75G7 (antibody, human IgG1, V domains shown)
VH: B1 VH
VL: B1 VL
notes: also called c75G7C6; chimeric antibody c75G7C6

Legend:
[1] = molecular target: T1, human EGFRvIII-hFc protein (human, UniProt P00533 25-645); test: ELISA, coated EGFRvIII-hFc, antibody 0.001 nM
T1 construct: extracellular domain; made in HEK293 cells, purified on protein A; also called immunogen A; hFc-tagged EGFRvIII protein; not shown: human IgG Fc fragment (hFc) of the pCpC vector
Procedure, shortened: (§1)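 Coat: EGFRvIII-hFc 1.0 μg/mL, 4° C o/n. Block: 1% BSA/PBS-Tween, 2 h RT. Ab 2 h 37° C; HRP 2° Ab 2 h 37° C. TMB 30 min, HCl stop, A450.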

[2] = molecular target: T1, human EGFRvIII-hFc protein; test: ELISA, coated EGFRvIII-hFc, antibody 0.01 nM
Procedure, shortened: as §1

[3] = molecular target: T1, human EGFRvIII-hFc protein; test: ELISA, coated EGFRvIII-hFc, antibody 0.1 nM
Procedure, shortened: as §1

[4] = molecular target: T2, human EGFRvIII-hFc protein (human, UniProt P00533 25-645); test: ELISA, EGFRvIII-hFc coated
T2 construct: extracellular domain; also called immunogen A; hFc-tagged EGFRvIII protein; not shown: human IgG Fc fragment (hFc) of the pCpC vector

[5] = molecular target: T3, human wild-type EGFR protein on the cell surface (human, UniProt P00533 25-1210); test: FACS, MFI on A431 cells over MFI on normal primary hepatocytes; ratio of MFI on A431 to MFI on hepatocytes
T3 construct: whole, on cells; Endogenous on A431, HEB, U87MG cells and normal human primary hepatocytes; transfected on CHOk1-EGFR cells; The cell is named under assay; also called A431; HEB

Binder	OD450 nm [1]	OD450 nm [2]	OD450 nm [3]	EC50 [4] [nM]	Maximum OD450 value [4] [OD450]	Selective window (MFI A431/Hepatocytes) [5] [fold]
B1	0.07	0.06	0.07	–	–	–
B2	–	–	–	0.5	2.5	26.5
